Patent publication US20230365658A1
Values joined by “and” are separate entries in the source; they are usually repeats but may differ in a detail not shown here. Identical values can stand only once. Like-named read-outs stand apart in the source and are kept apart here.

Experiments:
[1] = target: COV2-RBD (rpk9) Wuhan-Hu-1 (WT) (SARS-CoV-2)
[2] = target: COV2-RBD (rpk9) Wuhan-Hu-1 (WT) (SARS-CoV-2); remark: listed apart in the source
[3] = target: COV2-RBD (rpk9) B.1.1.529 (BA.1) (SARS-CoV-2)
[4] = target: COV2-RBD (rpk9) B.1.1.529 (BA.1) (SARS-CoV-2); experiment: Gyrolab immunoassay, reference titration, relative binding (%)
[5] = target: SARS-CoV-2 spike (S) glycoprotein, Omicron BA.4 (SARS-CoV-2) (UniProt P0DTC2); experiment: cell-based or functional assay
[6] = target: SARS-CoV-2 spike (S) glycoprotein, Omicron BA.1.1 (SARS-CoV-2) (UniProt P0DTC2); experiment: cell-based or functional assay
[7] = target: SARS-CoV-2 spike (S) glycoprotein, Omicron BA.1 (SARS-CoV-2) (UniProt P0DTC2); experiment: cell-based or functional assay
[8] = target: SARS-CoV-2 spike (S) glycoprotein, Omicron BA.2 (SARS-CoV-2) (UniProt P0DTC2); experiment: cell-based or functional assay
[9] = target: SARS-CoV-2 spike (S) glycoprotein, Omicron BA.5.5 (SARS-CoV-2) (UniProt P0DTC2); experiment: cell-based or functional assay
[10] = target: SARS-CoV-2 spike (S) glycoprotein, Delta (B.1.617.2) (SARS-CoV-2) (UniProt P0DTC2); experiment: cell-based or functional assay
[11] = target: COV2-RBD (rpk9) Wuhan-Hu-1 (WT) (SARS-CoV-2); experiment: Gyrolab full-curve immunoassay (LLNL Gyros) on RBD
[12] = target: COV2-RBD (rpk9) B.1.1.529 (BA.1) (SARS-CoV-2); experiment: Gyrolab full-curve immunoassay (LLNL Gyros) on RBD
[13] = target: COV2-RBD (rpk9) Wuhan-Hu-1 (WT) (SARS-CoV-2); experiment: Gyros full-curve immunoassay, mAb titrated on RBD, relative binding (FI)
[14] = target: SARS-CoV-2 Spike-RBD, Delta (SARS-CoV-2) (UniProt P0DTC2); experiment: as above
[15] = target: COV2-RBD (rpk9) B.1.1.529 (BA.1) (SARS-CoV-2); experiment: as above
[16] = target: SARS-CoV-2 Spike-RBD, Delta (SARS-CoV-2) (UniProt P0DTC2); experiment: Gyrolab immunoassay, reference titration, relative binding (%)
[17] = target: COV2-RBD (rpk9) Wuhan-Hu-1 (WT) (SARS-CoV-2); experiment: Gyrolab immunoassay, IgG titrated on Spike-RBD, relative binding (FI)
[18] = target: COV2-RBD (rpk9) B.1.1.529 (BA.1) (SARS-CoV-2); experiment: as above

COV2-2130 (antibody)
EC50 (read off the curve) [1]: 0.8 µg/mL
EC50 [2]: 1.72 µg/mL and 0.675 µg/mL
EC50 [3]: 2.77 µg/mL and 1.75 µg/mL
EC50 (read off the curve) [4]: 2 µg/mL

rS2K146 (antibody)
normalized pseudoneutralization IC50 [5]: 0.036 µg/mL
normalized pseudoneutralization IC50 [6]: 0.00209 µg/mL
normalized pseudoneutralization IC50 [7]: 0.00438 µg/mL
normalized pseudoneutralization IC50 [8]: 0.00336 µg/mL

rDENV-2D22 (antibody)
authentic virus neutralization IC50 (FRNT) [5]: > 10 µg/mL
normalized pseudoneutralization IC50 [5]: > 10 µg/mL
authentic virus neutralization IC50 (FRNT) [6]: > 10 µg/mL
normalized pseudoneutralization IC50 [6]: > 10 µg/mL
authentic virus neutralization IC50 (FRNT) [9]: > 10 µg/mL
authentic virus neutralization IC50 (FRNT) [7]: > 10 µg/mL
authentic virus neutralization IC50 (FRNT) [10]: > 10 µg/mL

S309 (antibody)
AUC(logC) [11]: 60.6
AUC(logC) [12]: 53.2
EC50 (read off the curve) [1]: 2 µg/mL
EC50 [2]: 5.76 µg/mL
EC50 [3]: 17.2 µg/mL
EC50 (read off the curve) [13]: 2 µg/mL
EC50 (read off the curve) [14]: 2 µg/mL
EC50 (read off the curve) [15]: 4 µg/mL
EC50 (read off the curve) [16]: 2 µg/mL
EC50 (read off the curve) [4]: 6 µg/mL
pseudovirus neutralization IC50 [6]: 0.0332 µg/mL
pseudovirus neutralization IC50 [7]: 0.0632 µg/mL
pseudovirus neutralization IC50 [8]: 0.109 µg/mL
EC50 (read off the curve) [17]: 2 µg/mL
EC50 (read off the curve) [18]: 4 µg/mL
